From patent US20260209301A1, “Galanin-2 Receptor Agonists” (LIFEARC, priority 2022, published 2026)
Marks after values point to notes of the source that are not given here.

Legend:
GALR2 [1] = target: T1, GALR2 (Homo sapiens, UniProt O43603); assay: β-arrestin recruitment, PathHunter CHO-K1 GALR2 cells; format: cell-based; conditions: Table 2; mean +/− standard deviation, n ≥ 3
T1 sequence (O43603 1-387): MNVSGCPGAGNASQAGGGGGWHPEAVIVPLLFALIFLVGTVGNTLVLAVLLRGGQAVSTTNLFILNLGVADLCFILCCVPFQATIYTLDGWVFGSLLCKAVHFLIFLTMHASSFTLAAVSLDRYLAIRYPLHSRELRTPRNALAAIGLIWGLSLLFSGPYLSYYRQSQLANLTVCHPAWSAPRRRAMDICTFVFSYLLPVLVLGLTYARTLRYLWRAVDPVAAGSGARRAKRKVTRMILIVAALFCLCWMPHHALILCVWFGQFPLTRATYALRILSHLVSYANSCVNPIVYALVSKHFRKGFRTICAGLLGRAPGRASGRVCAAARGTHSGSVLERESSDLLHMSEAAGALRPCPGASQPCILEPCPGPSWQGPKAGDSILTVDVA
Protocol: Ligands were prepared at half log dilutions using cell plating reagent 2. 5 μl of each ligand was added to cells and plates incubated at 37° C. for 90 minutes. DiscoverX PathHunter detection kit (DiscoverX, USA) was added to cells as described my manufacturer's guidelines and plates incubated for 60 minutes at room temperature in the dark. Chemiluminescent signal was measured using the PHERAstar FS (BMG, Germany).

rat GalR2 = target: T2, rat GalR2 (Rattus norvegicus, UniProt O08726); assay: Calcium assay at orthologue receptor; format: cell-based; conditions: Table 8; Calcium assays; mean +/− standard deviation
T2 sequence (O08726 1-372): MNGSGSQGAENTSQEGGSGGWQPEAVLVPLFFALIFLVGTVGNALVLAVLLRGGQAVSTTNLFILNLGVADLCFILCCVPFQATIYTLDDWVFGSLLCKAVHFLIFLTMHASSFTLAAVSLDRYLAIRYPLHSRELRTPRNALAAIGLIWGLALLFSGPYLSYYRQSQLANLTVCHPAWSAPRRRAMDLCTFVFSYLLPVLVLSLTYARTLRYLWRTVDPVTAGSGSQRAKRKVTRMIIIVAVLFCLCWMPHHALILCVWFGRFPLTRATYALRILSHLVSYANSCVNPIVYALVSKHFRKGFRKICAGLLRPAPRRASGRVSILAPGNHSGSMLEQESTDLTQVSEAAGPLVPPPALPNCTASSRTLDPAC
Description: These species were chosen as they represent potential downstream in vivo models to be used. […] Calcium imaging was used to define receptor activity.

mouse GalR2 = target: T3, mouse GalR2 (Mus musculus, UniProt O88854); assay: Calcium assay at orthologue receptor; format: cell-based; conditions: Table 8; Calcium assays; mean +/− standard deviation
T3 sequence (O88854 1-371): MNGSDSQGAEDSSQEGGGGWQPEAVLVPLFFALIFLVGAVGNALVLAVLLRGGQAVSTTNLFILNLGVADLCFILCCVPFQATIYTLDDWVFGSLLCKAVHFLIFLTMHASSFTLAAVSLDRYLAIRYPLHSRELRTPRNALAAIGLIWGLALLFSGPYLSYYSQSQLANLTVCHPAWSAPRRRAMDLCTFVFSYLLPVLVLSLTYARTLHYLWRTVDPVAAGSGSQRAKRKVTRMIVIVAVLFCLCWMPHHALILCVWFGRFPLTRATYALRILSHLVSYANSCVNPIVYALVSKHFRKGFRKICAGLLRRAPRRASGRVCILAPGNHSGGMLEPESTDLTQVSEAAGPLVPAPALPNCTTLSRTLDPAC
Description: (§1) These species were chosen as they represent potential downstream in vivo models to be used. Within native galanin amino acid residues 1-15 are conserved across species, we would therefore expect the Gal FC fusions comprising amino acids 2 to 13 to retain GalR2 activity in these species. Calcium imaging was used to define receptor activity.

GALR2 [2] = target: T1, GALR2; assay: Calcium assay, CHO GalR2 cells (FLIPR); conditions: mean +/− standard deviation
Protocol: CHO GalR2 cells were plated at 10,000 cells per well in black clear bottom plates (corning, USA) and incubated overnight at 37° C. with 5% CO2. […] Ligands were prepared at a 5× concentration and added to cells using the FLIPR (Molecular Devices, USA). Baseline was typically 20 seconds before ligand addition. […] For analysis, fluorescence was normalised to pre-addition baseline and peak fluorescence used for all quantification.
In brief, a panel of functional cell-based microtiter-plate assays were developed using recombinant GalR1 and GalR2 receptors stably expressed in CHO cells. […] Nominally this equated to 10 serial (~3fold) dilutions with highest concentrations of 10-1 μM as appropriate.
In addition to generating both potency and efficacy estimates, the latter being expressed relative to native galanin, both G-protein and non-G-Protein signalling pathways were measured.

cynomolgus GalR2 = assay: Calcium assay at orthologue receptor; format: cell-based, Macaca fascicularis; conditions: Table 8; Calcium assays; mean +/− standard deviation
Description: as §1

GALR3 = target: T4, GALR3 (Homo sapiens, UniProt O60755); assay: Luciferase reporter gene assay (SRE), HEK293 Gqi cells; format: cell-based
T4 construct: expressed in transfected cells; host or cells: genetically modified HEK293 Gqi cells, transient
T4 sequence (O60755 1-368): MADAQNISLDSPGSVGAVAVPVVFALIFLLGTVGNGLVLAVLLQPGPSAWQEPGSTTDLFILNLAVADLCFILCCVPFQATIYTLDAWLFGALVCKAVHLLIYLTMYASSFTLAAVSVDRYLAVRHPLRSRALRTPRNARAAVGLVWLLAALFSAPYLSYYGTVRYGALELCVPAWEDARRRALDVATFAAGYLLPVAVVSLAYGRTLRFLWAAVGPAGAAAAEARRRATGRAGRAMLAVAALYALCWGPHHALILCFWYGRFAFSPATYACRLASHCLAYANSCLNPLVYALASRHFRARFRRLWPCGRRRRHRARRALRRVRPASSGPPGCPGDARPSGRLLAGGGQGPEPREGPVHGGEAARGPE
Protocol: GalR3 activity was measured, alongside GalR1 and GalR2, using a luciferase reporter assay. A reporter plasmid and a receptor plasmid, were transiently transfected into the target cell line. The reporter plasmid contains a serum response element (SRE) or a nuclear factor of activated T-cells response element (NFAT-RE) which is coupled to a luciferase transcript and induces expression of the luciferase upon a specific G-protein (Gai uses SRE; Gaq uses NFAT-RE) activation. The target receptor is constantly expressed after cell transfection. For GALR1 and GALR3 screening, genetically modified HEK293 Gqi cells were transiently transfected with the SRE reporter and the receptor (GALR1 and GALR3) plasmids. For GALR2 screening, HEK293 cells were transiently transfected with the NFAT-RE reporter and the receptor (GALR2) plasmid. […] The luciferase activity was analyzed with the Bright-Glo Luciferase Assay (Promega) in an EnSpire plate reader.
Therefore, to measure activity at the GalR3 receptor a reporter gene assay was used. In this system MAP/ERK signalling is used to measure receptor activity. Activation of Gqi coupled receptors leads to downstream activation of ERK1/2. The activated ERK translocates to the nucleus where it phosphorylates and activates transcription factors, which lead to the binding of Serum response element (SRE). In this assay SRE activation induces expression of a luciferase reporter gene. […] To ensure this effect was not an artifact of the reporter gene assay, GalR1 and GalR2 reporter assays (using SRE and NFAT-RE respectively) were also run.

GALR2 [3] = target: T1, GALR2; assay: Radioligand binding, [125I]galanin displacement on CHO GalR2 membranes; set-up: expressed in transfected cells; host or cells: CHO (Flp-In, pcDNA5/FRT); conditions: recombinant GalR2 membranes, FIG. 3
Protocol: Cell membrane homogenates (4 μg protein—from CHO cells expressing the GalR2 receptor) were incubated for 120 minutes at 22° C. with 0.05 nM [^125I] galanin in the absence or presence of test compound in a buffer containing 25 mM Tris-HCl (pH 7.4, 10 mM MgCl2 and 0.5% BSA. Non-specific binding was determined in the presence of 1 μM porcine galanin. Following incubation, samples were filtered rapidly under vacuum through glass fiber filters (GF/B, Packard) pre-soaked with 0.3% PEI and rinsed several times with ice cold 50 mM Tris-HCl using a 96 sample cell harvester (Unifilter, Packard). The filters are dried then counted for radioactivity in a scintillation counter (Topcount, Packard) using a scintillation cocktail (Microscint 0), Packard). The results are expressed as a percent inhibition of the control radioligand specific binding. The standard reference compound is porcine galanin which is tested in each experiment at several concentrations to obtain a competition curve from which its IC50 is generated.
Briefly, cell overexpressing recombinant GalR2 were used to for crude membrane preparations. Competition style binding assays were then used to monitor displacement of [125I]-Galanin using a range of concentrations of Gal-FC fusion. After a period of incubation data were expressed relative the maximum specific Galanin bound.

GalR1 = target: T5, GalR1 (Homo sapiens, UniProt P47211); assay: Ala scanning of Gal2-13 peptides, activity at GalR1; format: cell-based; conditions: peptides vs Gal2-13, FIG. 5
T5 sequence (P47211 1-349): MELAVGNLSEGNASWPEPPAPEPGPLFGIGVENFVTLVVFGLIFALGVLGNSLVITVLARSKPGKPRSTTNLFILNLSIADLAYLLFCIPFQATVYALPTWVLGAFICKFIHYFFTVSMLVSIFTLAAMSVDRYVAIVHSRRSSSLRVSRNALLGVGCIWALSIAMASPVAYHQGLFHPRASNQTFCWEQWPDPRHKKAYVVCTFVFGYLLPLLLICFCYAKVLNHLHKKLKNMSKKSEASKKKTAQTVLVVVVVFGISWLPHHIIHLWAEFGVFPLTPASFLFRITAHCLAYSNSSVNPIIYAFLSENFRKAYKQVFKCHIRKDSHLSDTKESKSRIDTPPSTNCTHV
Description: Replacement of residues 2, 3, 5, 6, 9, 10, 11, 12 (corresponding to W, T, L, S, Y, L, L, G) led to a significant decrease in activity at GalR2 (FIG. 5). Replacement of residues 4, 8, 13 (corresponding to N, G, P) caused no decrease in activity. […] Of note, none of the substitutions increased GalR2 or GalR1 agonistic activity.

Row | effect of Ala substitution on GalR1 activity (GalR1) | Substance | GalR2 Beta Arrestin, mean pEC50 (GALR2 [1]) | Rat GalR2 activity (rat GalR2) | Mouse GalR2 activity (mouse GalR2) | GalR2 Calcium, mean pEC50 (GALR2 [2]; Table 2, n ≥ 3) | GalR2 activity (calcium assay), warhead length (GALR2 [2]; Table 6, highest concentration tested 10 μM) | Cynomolgus GalR2 activity (cynomolgus GalR2) | activity at GalR3 (in words) (GALR3) | pIC50, displacement of [125I]-Galanin binding (GALR2 [3])
1 |  | Gal2-12FC: galanin 2-12, AEAAAKEAAAKA linker, human IgG1 FC; SEQ ID NO: 25 | 7.6 +/− 0.2* | 6.6 +/− 0.4 | 6.8 +/− 0.1 | 6.3 +/− 0.3 | 6.6 +/− 0.0 | 7.7 +/− 0.4 | no measurable activity | 7.24
2 | reduced GalR1 activity | Gal2-13ala8: ala scanning peptide WTLNSAAYLLGP, SEQ ID NO: 43 |  |  |  |  |  |  |  | 
